Laboratory results published in PMC7057995, “Structural basis of RNA polymerase I pre-initiation complex formation and promoter melting”.

Biological target: Core factor (CF) wild type: Rrn6/Rrn7/Rrn11 (Saccharomyces cerevisiae, UniProt P32786;P40992;Q04712 1-894;1-514;1-507)
Test: EMSA; 0.2 pmol DNA; 0.25, 0.5, 1 pmol CF; EMSA: 20 mM HEPES/KOH pH 7.8, 10% glycerol, 200 mM KCl, 1 mM MgCl2, 0.1 mg/ml BSA, 1 mM DTT, 30 min, temperature not stated; 6% native gel, 0.5x TBE
Settings: protein: recombinant; tags: His (Ni-NTA purified); copies: 1;1;1; label: NTS -3 Atto647N; TS -5 Cy3; blunt

Core factor (CF) wild type: Rrn6/Rrn7/Rrn11, sequence (P32786 whole entry, chain 1 of 3): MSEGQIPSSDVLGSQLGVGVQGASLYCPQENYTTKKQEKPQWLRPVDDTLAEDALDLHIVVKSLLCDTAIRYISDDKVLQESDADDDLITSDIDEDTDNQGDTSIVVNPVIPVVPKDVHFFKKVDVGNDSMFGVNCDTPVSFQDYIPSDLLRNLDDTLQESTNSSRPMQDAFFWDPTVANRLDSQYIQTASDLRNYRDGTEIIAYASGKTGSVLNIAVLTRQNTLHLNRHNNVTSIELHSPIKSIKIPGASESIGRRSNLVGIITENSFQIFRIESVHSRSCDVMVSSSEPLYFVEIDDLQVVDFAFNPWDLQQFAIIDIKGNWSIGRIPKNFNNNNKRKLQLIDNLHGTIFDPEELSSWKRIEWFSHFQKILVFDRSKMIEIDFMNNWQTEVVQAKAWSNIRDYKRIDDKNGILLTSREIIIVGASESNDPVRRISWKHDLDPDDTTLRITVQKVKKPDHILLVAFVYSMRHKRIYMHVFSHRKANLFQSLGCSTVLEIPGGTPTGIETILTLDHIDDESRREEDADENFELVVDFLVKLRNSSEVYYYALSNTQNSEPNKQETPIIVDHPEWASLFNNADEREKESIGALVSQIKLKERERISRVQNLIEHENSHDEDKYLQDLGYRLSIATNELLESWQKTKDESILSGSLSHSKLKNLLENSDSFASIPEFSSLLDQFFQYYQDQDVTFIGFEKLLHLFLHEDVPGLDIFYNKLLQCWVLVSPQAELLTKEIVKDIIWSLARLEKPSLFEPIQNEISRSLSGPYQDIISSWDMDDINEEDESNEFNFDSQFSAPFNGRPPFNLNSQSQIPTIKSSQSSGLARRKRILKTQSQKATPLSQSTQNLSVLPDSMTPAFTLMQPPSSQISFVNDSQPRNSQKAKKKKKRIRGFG
Core factor (CF) wild type: Rrn6/Rrn7/Rrn11, sequence (P40992 whole entry, chain 2 of 3): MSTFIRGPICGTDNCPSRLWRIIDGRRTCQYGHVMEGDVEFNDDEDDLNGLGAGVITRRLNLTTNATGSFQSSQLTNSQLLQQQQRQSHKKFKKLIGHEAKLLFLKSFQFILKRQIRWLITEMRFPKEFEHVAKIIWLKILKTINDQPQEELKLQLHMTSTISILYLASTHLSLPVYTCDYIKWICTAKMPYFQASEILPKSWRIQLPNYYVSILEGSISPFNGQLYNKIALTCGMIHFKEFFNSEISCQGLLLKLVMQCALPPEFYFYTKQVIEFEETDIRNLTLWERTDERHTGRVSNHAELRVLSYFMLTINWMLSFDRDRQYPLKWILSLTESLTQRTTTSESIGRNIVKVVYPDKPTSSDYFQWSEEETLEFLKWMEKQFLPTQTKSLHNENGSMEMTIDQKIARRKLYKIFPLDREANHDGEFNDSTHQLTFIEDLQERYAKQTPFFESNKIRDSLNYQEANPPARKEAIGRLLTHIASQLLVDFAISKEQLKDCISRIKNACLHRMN
Core factor (CF) wild type: Rrn6/Rrn7/Rrn11, sequence (Q04712 whole entry, chain 3 of 3): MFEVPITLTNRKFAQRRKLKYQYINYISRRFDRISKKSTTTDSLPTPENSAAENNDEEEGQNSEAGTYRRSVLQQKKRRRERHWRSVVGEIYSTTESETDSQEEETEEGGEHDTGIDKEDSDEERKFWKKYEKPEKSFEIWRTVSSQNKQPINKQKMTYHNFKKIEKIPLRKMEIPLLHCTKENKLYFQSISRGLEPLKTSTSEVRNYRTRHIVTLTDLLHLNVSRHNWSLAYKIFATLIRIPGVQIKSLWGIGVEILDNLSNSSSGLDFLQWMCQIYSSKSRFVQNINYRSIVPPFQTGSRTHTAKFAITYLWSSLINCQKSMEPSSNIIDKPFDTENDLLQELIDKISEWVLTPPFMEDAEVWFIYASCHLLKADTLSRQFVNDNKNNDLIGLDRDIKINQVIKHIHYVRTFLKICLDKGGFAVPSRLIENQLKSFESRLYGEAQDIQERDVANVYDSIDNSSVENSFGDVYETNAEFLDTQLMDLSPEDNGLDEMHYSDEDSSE

B1: rDNA promoter -83 to +26 (EMSA; ID 4691/4692) (dsDNA)
DNA 1: AAAAGTAAGATTTTAGTTTGTAATGGGAGGGGGAATTTAGTCATGGAGTACAAGTGTGAGGAAAAGTAGTTGGGAGGTACTTCATACCAAAGGGGTTCAACACAAGGGT
DNA 2: ACCCTTGTGTTGAACCCCTTTGGTATGAAGTACCTCCCAACTACTTTTCCTCACACTTGTACTCCATGACTAAATTCCCCCTCCCATTACAAACTAAAATCTTACTTTT
- binding result: binds
